Data from the supplement of paper PMC10126150.
± gives the standard deviation of the averaged measurements.

Tested on: ATP
Experiment: switch fluorescence ratio, 500 uM ATP over buffer (Cy3 cluster intensity, sum of 5 cycles each) (fold (ratio)); higher = stronger signal-on switching upon ATP binding; sequences stand for … in TCGTCGGCAGCGTCAGATGTGTATAAGAGACAGTTTTTTTTTTTTTTTTTTTTTTTTT…TC
Conditions: aptamer strand: ATP DNA aptamer (quencher-CACCTGGGGGAGTATTGCGGAGGAAGG + anchor), 100 nM annealed; ATP concentration: 500 uM
Summary of the method: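 Values give the fluorescence ratio for each switch-domain sequence, averaged from per-cluster ratios of summed target-cycle to summed buffer-cycle Cy3 intensity. The Cy3-labelled switching-strand clusters sat on a modified Illumina MiSeq flow-cell, were annealed to 100 nM quencher-labelled ATP aptamer, and were imaged in selection buffer, then after 15 min with 500 uM ATP at 22 °C. Five cycles ran with NaOH stripping and re-annealing between them, and clusters outside 100-1000 RFU were excluded.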
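Note: ATP exposure 15 min at 22 °C before imaging.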

| Sequence | switch fluorescence ratio |
| --- | --- |
| AGAATCGTTG | 1.005 ± 0.0072 |
| TTGGCGGGCG | 0.979 ± 0.034 |
| TGGGAGGCAT | 1.01 ± 0.027 |
| GGCATTATAT | 0.9984 ± 0.0058 |
| TTCTGATGGA | 0.978 ± 0.036 |
| CTTTTTTGGG | 1.01 ± 0.014 |
| AGGGTCGGTG | 0.98 ± 0.027 |
| TTTCACAGCT | 1.03 ± 0.041 |
| TTTGGTATAG | 0.975 ± 0.01 |
| AGATCTTCGG | 1.001 ± 0.0076 |
| GTTGCGTTTT | 0.9852 ± 0.0095 |
| GCCATGGCGT | 1.02 ± 0.031 |
| TAATACTTCG | 1.03 ± 0.012 |
| CATGAAGATG | 0.98 ± 0.012 |
| TTTTAACTTT | 1.03 ± 0.052 |
| GTGTTTGACA | 0.9604 ± 0.005 |
| ATGAAAACGG | 1 ± 0.051 |
| GTGGACATAT | 0.991 ± 0.015 |
| GGGGAGTGAG | 0.986 ± 0.017 |
| TTCGGACCCG | 0.976 ± 0.01 |
| CGGGAGGGAC | 0.994 ± 0.057 |
| GGGGGTGCTG | 0.993 ± 0.025 |
| GACGGGGGGA | 1.03 ± 0.077 |

| Sequence | switch fluorescence ratio |
| --- | --- |
| AAGGGGGCCG | 1.06 ± 0.092 |
| ACAGAGGTTT | 0.984 ± 0.035 |
| GCTAATATTA | 1.03 ± 0.021 |
| CCAACCAAGG | 1.16 ± 0.056 |
| TGCCTGGTAT | 0.984 ± 0.019 |
| AAGCTTTTAT | 0.993 ± 0.06 |
| TGTAAGCTGG | 1.03 ± 0.073 |
| TCCGAAGGAA | 1.11 ± 0.042 |
| TATATGGATT | 0.999 ± 0.015 |
| CGAAGGGGAA | 1.03 ± 0.099 |
| GGGGTGCTTG | 0.988 ± 0.026 |
| AGGGAGAGCG | 0.991 ± 0.071 |
| AAAGTAGAGG | 0.969 ± 0.029 |
| TGGGTTATTT | 1 ± 0.038 |
| GGTATTGTTG | 1 ± 0.024 |
| TTTGTGTTTT | 1.03 ± 0.044 |
| TACAAGCTAA | 0.978 ± 0.032 |
| TTCGTGTTTT | 1.04 ± 0.059 |
| TGCTTGTTTT | 0.9912 ± 0.0038 |
| GCGAACGGGG | 1.01 ± 0.049 |
| TTTAATGATT | 1.05 ± 0.021 |
| TAGGTAGCGG | 0.9996 ± 0.0076 |
| GTTTTGTATT | 1 ± 0.029 |

| Sequence | switch fluorescence ratio |
| --- | --- |
| AGCTTTATGC | 0.935 ± 0.043 |
| CCATTGGGTT | 1.02 ± 0.031 |
| CTCTTGTTTT | 0.988 ± 0.018 |
| ATGTGTGAAT | 0.997 ± 0.015 |
| ATTCTGTTTG | 0.987 ± 0.043 |
| TTGAATATGG | 1.01 ± 0.021 |
| TGGGGATAGT | 0.968 ± 0.018 |
| CAAGGTTGAG | 0.979 ± 0.034 |
| GTGGTACGTA | 1.02 ± 0.06 |
| ATGAGGGGTA | 1.01 ± 0.026 |
| AATTATTGGT | 1.01 ± 0.026 |
| TAATCGGGAA | 1 ± 0.017 |
| GTAATTTGGG | 0.982 ± 0.019 |
| TCCGGGGTGG | 1.022 ± 0.0097 |
| TTGGGTGTTT | 1.06 ± 0.035 |
| GGGGGGCTGA | 0.982 ± 0.018 |
| TTTTTGTGTT | 1 ± 0.025 |
| GATAGTGAAA | 1.02 ± 0.035 |
| GGGCAGCTCT | 0.958 ± 0.016 |
| AAGTTTATAG | 1.03 ± 0.0066 |
| TGATTAAGCA | 0.999 ± 0.033 |
| CAGGTTCACG | 1.02 ± 0.032 |
| GGCCTTATCG | 0.991 ± 0.048 |

| Sequence | switch fluorescence ratio |
| --- | --- |
| TAGCTAGATG | 1.02 ± 0.022 |
| GGGCGGTATA | 0.986 ± 0.025 |
| GGGCAAGAGT | 1.03 ± 0.024 |
| CAAGTTTTTT | 0.984 ± 0.016 |
| AGGGTCGCGT | 0.989 ± 0.034 |
| TTGGGGCCTC | 1 ± 0.033 |
| TTTGGGATTT | 1.04 ± 0.15 |
| TTTACAGGTA | 0.981 ± 0.021 |
| TGATACAAGC | 1.05 ± 0.032 |
| GCAGGCGTTG | 0.995 ± 0.013 |
| GGTTGCAGTC | 0.946 ± 0.025 |
| AGGGAGCGGC | 1.11 ± 0.035 |
| GACCATTGTC | 0.99 ± 0.063 |
| GCTTTCGGGC | 1.01 ± 0.045 |
| AGGATATCAG | 0.991 ± 0.027 |
| GCGGGAACGG | 0.992 ± 0.017 |
| TTTGAAAAGG | 1.01 ± 0.039 |
| GATGGAAGGG | 0.974 ± 0.023 |
| GGTTGAAGTT | 0.986 ± 0.0077 |
| GGGGGGATCT | 1.004 ± 0.0098 |
| TGAAAAGAGG | 0.988 ± 0.021 |
| TTGGTTTCAT | 1.009 ± 0.0094 |
| CACGGCGTAG | 1.02 ± 0.013 |

| Sequence | switch fluorescence ratio |
| --- | --- |
| ACGTTATAAG | 1.1 ± 0.011 |
| GACTATAATT | 1.026 ± 0.0032 |
| TCATGGGGTG | 1.05 ± 0.07 |
| GATGGTGGTT | 1.02 ± 0.044 |
| GTATGCGGAG | 0.996 ± 0.02 |
| GATCTTAGGT | 0.996 ± 0.041 |
| CCACATTGGA | 1.001 ± 0.01 |
| GTTGGGCACT | 0.992 ± 0.033 |
| CGGATGGGGC | 1 ± 0.042 |
| AAGTCAGCTG | 0.9826 ± 0.004 |
| GGGGGCTGTT | 1 ± 0.014 |
| AATACTTGGG | 0.966 ± 0.01 |
| TTTGAGCTGT | 1.02 ± 0.042 |
| TATGATATGG | 1.04 ± 0.025 |
| TCATGTGAAA | 1.03 ± 0.021 |
| TAATGTGGCC | 1.01 ± 0.039 |
| AGGATAAACT | 1 ± 0.013 |
| TTATCCAAAG | 0.966 ± 0.016 |
| AACGAGTGTG | 1.01 ± 0.052 |
| AAGGGGAGTC | 1.01 ± 0.0044 |
| GTGGGGAGCT | 1.03 ± 0.061 |
| TCTTTCCTGC | 1.022 ± 0.0014 |
| AAAAACTGAA | 1.01 ± 0.02 |

| Sequence | switch fluorescence ratio |
| --- | --- |
| TGGGTGAGGG | 1 ± 0.0037 |
| TCGCGGTTCT | 1.11 ± 0.085 |
| CTTGAAGATG | 0.973 ± 0.065 |
| GAGATCTTGG | 0.9824 ± 0.0045 |
| TTGTTATAGC | 0.987 ± 0.042 |
| TAGTTATTAC | 1.08 ± 0.14 |
| AGTTGTTGGG | 0.998 ± 0.013 |
| TCATTAGAAA | 1 ± 0.013 |
| TGTTTGTTAG | 1.04 ± 0.048 |
| TTATGGCTAT | 0.991 ± 0.031 |
| TATTCTCATG | 1 ± 0.047 |
| TGCGGTATGT | 1.019 ± 0.0014 |
| GCTGGTTGAC | 0.981 ± 0.017 |
| TCTTTTTGGG | 1.13 ± 0.16 |
| CAAGAGGGAC | 1.04 ± 0.13 |
| ATTTGGTTGG | 0.987 ± 0.044 |
| ATTTGTTGG | 1.029 ± 0.0076 |
| TTGCCTGTG | 1.03 ± 0.033 |
| ATTTATATCC | 1.02 ± 0.013 |
| GGAGGTTTAA | 1.01 ± 0.024 |
| GGGAAAGATG | 0.986 ± 0.042 |
| TTTATGTCCA | 0.9923 ± 0.0021 |
| AAGGGTAGGA | 1 ± 0.013 |

| Sequence | switch fluorescence ratio |
| --- | --- |
| AGGAATTGCT | 1.03 ± 0.018 |
| TGAAGTTTTG | 1.02 ± 0.027 |
| TGGAGGGCTA | 0.97 ± 0.032 |
| GATCTACAGC | 1.02 ± 0.024 |
| GATACAGTGC | 1.059 ± 0.002 |
| GCGGTGGGGA | 1.03 ± 0.027 |
| GGATGGTGGG | 1.01 ± 0.042 |
| TAACGAAACT | 1.26 ± 0.28 |
| TGTGGCAACG | 0.974 ± 0.032 |
| ACTTTGCGGT | 1.078 ± 0.0015 |
| TGAGTCTAGG | 0.9979 ± 0.0026 |
| GGGCGGCGGC | 0.988 ± 0.0099 |
| CTGTGAGGGC | 0.991 ± 0.037 |
| ATGCATTTTG | 0.97 ± 0.03 |
| GGCCATCCAG | 1.01 ± 0.036 |
| TTAAACCTGG | 1.08 ± 0.032 |
| TGCAAATTCG | 0.999 ± 0.022 |
| CTCGGGTGGG | 0.985 ± 0.037 |
| TACTGAGCAG | 1.019 ± 0.003 |
